B1: Cedar virus fusion protein F (CedV F): g2 (protein)
parent chain: MSNKRTTVLIIISYTLFYLNNAAIVGFDFDKLNKIGVVQGRVLNYKIKGDPMTKDLVLKFIPNIVNITECVREPLSRYNETVRRLLLPIHNMLGLYLNNTNAKMTGLMIAGVIMGGIAIGIATAAQITAGFALYEAKKNTENIQKLTDSIMKTQDSIDKLTDSVGTSILILNKLQTYINNQLVPNLELLSCRQNKIEFDLMLTKYLVDLMTVIGPNINNPVNKDMTIQSLSLLFDGNYDIMMSELGYTPQDFLDLIESKSITGQIIYVDMENLYVVIRTYLPTLIEVPDAQIYEFNKITMSSNGGEYLSTIPNFILIRGNYMSNIDVATCYMTKASVICNQDYSLPMSQNLRSCYQGETEYCPVEAVIASHSPRFALTNGVIFANCINTICRCQDNGKTITQNINQFVSMIDNSTCNDVMVDKFTIKVGKYMGRKDINNINIQIGPQIIIDKVDLSNEINKMNQSLKDSIFYLREAKRILDSVNISLISPSVQLFLIIISVLSFIILLIIIVYLYCKSKHSYKYNKFIDDPDYYNDYKRERINGKASKSNNIYYVGD
B2: Cedar virus fusion protein F (CedV F): g4 (protein)
parent chain: MSNKRTTVLIIISYTLFYLNNAAIVGFDFDKLNKIGVVQGRVLNYKIKGDPMTKDLVLKFIPNIVNITECVREPLSRYNETVRRLLLPIHNMLGLYLNNTNAKMTGLMIAGVIMGGIAIGIATAAQITAGFALYEAKKNTENIQKLTDSIMKTQDSIDKLTDSVGTSILILNKLQTYINNQLVPNLELLSCRQNKIEFDLMLTKYLVDLMTVIGPNINNPVNKDMTIQSLSLLFDGNYDIMMSELGYTPQDFLDLIESKSITGQIIYVDMENLYVVIRTYLPTLIEVPDAQIYEFNKITMSSNGGEYLSTIPNFILIRGNYMSNIDVATCYMTKASVICNQDYSLPMSQNLRSCYQGETEYCPVEAVIASHSPRFALTNGVIFANCINTICRCQDNGKTITQNINQFVSMIDNSTCNDVMVDKFTIKVGKYMGRKDINNINIQIGPQIIIDKVDLSNEINKMNQSLKDSIFYLREAKRILDSVNISLISPSVQLFLIIISVLSFIILLIIIVYLYCKSKHSYKYNKFIDDPDYYNDYKRERINGKASKSNNIYYVGD
B3: Cedar virus fusion protein F (CedV F): g1 (protein)
parent chain: MSNKRTTVLIIISYTLFYLNNAAIVGFDFDKLNKIGVVQGRVLNYKIKGDPMTKDLVLKFIPNIVNITECVREPLSRYNETVRRLLLPIHNMLGLYLNNTNAKMTGLMIAGVIMGGIAIGIATAAQITAGFALYEAKKNTENIQKLTDSIMKTQDSIDKLTDSVGTSILILNKLQTYINNQLVPNLELLSCRQNKIEFDLMLTKYLVDLMTVIGPNINNPVNKDMTIQSLSLLFDGNYDIMMSELGYTPQDFLDLIESKSITGQIIYVDMENLYVVIRTYLPTLIEVPDAQIYEFNKITMSSNGGEYLSTIPNFILIRGNYMSNIDVATCYMTKASVICNQDYSLPMSQNLRSCYQGETEYCPVEAVIASHSPRFALTNGVIFANCINTICRCQDNGKTITQNINQFVSMIDNSTCNDVMVDKFTIKVGKYMGRKDINNINIQIGPQIIIDKVDLSNEINKMNQSLKDSIFYLREAKRILDSVNISLISPSVQLFLIIISVLSFIILLIIIVYLYCKSKHSYKYNKFIDDPDYYNDYKRERINGKASKSNNIYYVGD
B4: Cedar virus fusion protein F (CedV F): g3 (protein)
parent chain: MSNKRTTVLIIISYTLFYLNNAAIVGFDFDKLNKIGVVQGRVLNYKIKGDPMTKDLVLKFIPNIVNITECVREPLSRYNETVRRLLLPIHNMLGLYLNNTNAKMTGLMIAGVIMGGIAIGIATAAQITAGFALYEAKKNTENIQKLTDSIMKTQDSIDKLTDSVGTSILILNKLQTYINNQLVPNLELLSCRQNKIEFDLMLTKYLVDLMTVIGPNINNPVNKDMTIQSLSLLFDGNYDIMMSELGYTPQDFLDLIESKSITGQIIYVDMENLYVVIRTYLPTLIEVPDAQIYEFNKITMSSNGGEYLSTIPNFILIRGNYMSNIDVATCYMTKASVICNQDYSLPMSQNLRSCYQGETEYCPVEAVIASHSPRFALTNGVIFANCINTICRCQDNGKTITQNINQFVSMIDNSTCNDVMVDKFTIKVGKYMGRKDINNINIQIGPQIIIDKVDLSNEINKMNQSLKDSIFYLREAKRILDSVNISLISPSVQLFLIIISVLSFIILLIIIVYLYCKSKHSYKYNKFIDDPDYYNDYKRERINGKASKSNNIYYVGD
B5: Cedar virus fusion protein F (CedV F): g6 (protein)
parent chain: MSNKRTTVLIIISYTLFYLNNAAIVGFDFDKLNKIGVVQGRVLNYKIKGDPMTKDLVLKFIPNIVNITECVREPLSRYNETVRRLLLPIHNMLGLYLNNTNAKMTGLMIAGVIMGGIAIGIATAAQITAGFALYEAKKNTENIQKLTDSIMKTQDSIDKLTDSVGTSILILNKLQTYINNQLVPNLELLSCRQNKIEFDLMLTKYLVDLMTVIGPNINNPVNKDMTIQSLSLLFDGNYDIMMSELGYTPQDFLDLIESKSITGQIIYVDMENLYVVIRTYLPTLIEVPDAQIYEFNKITMSSNGGEYLSTIPNFILIRGNYMSNIDVATCYMTKASVICNQDYSLPMSQNLRSCYQGETEYCPVEAVIASHSPRFALTNGVIFANCINTICRCQDNGKTITQNINQFVSMIDNSTCNDVMVDKFTIKVGKYMGRKDINNINIQIGPQIIIDKVDLSNEINKMNQSLKDSIFYLREAKRILDSVNISLISPSVQLFLIIISVLSFIILLIIIVYLYCKSKHSYKYNKFIDDPDYYNDYKRERINGKASKSNNIYYVGD

Settings: glycan lost

| Protein | localisation_or_trafficking | other: cell-cell fusion activity | other: cell-cell fusion activity, fold_change | other: proteolytic processing | expression_or_secretion |
| --- | --- | --- | --- | --- | --- |
| B1 | increases | decreases | decreases | no change |  |
| B2 |  |  |  |  | no change |
| B3 | decreases |  |  |  | no change |
| B4 | decreases |  |  | no change |  |
| B5 | decreases |  |  | no change |  |
